Measured values reported in article PMC4923858.

Target: T1, TβRII-GFP, P37173
T1 chain: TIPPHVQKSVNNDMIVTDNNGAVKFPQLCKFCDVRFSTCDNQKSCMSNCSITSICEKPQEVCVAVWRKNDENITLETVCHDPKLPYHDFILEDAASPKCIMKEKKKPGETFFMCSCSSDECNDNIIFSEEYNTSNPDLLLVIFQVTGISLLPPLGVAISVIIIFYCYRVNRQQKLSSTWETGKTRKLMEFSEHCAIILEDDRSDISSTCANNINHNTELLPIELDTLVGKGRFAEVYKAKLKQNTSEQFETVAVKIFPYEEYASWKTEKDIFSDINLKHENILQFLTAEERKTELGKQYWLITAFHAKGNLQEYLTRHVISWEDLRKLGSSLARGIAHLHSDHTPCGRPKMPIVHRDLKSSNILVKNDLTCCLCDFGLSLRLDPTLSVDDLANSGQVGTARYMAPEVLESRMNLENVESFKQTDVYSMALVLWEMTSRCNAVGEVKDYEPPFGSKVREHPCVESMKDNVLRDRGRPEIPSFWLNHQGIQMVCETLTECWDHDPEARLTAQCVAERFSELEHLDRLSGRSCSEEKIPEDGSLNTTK
Experiment: single-molecule photobleaching step counting (TIRFM); TβRII-GFP on the membrane of fixed HeLa cells 4 h after transfection; after TGF-β1 10 ng/mL for 15 min at 37 °C; room temperature
Settings: remark: other sources report otherwise

B1: TβRII-GFP, P37173 23-567 (receptor)
chain: T1 chain
B1 gave a percent of spots bleaching in one step (monomers), after TGF-β1 of 67.7%, a percent of spots bleaching in three steps, after TGF-β1 of 0.6% and a percent of spots bleaching in two steps (dimers), after TGF-β1 of 31.6%.
